In patent US20250025566A1, “PEPTIDE-DRUG CONJUGATES FOR TREATMENT OF NEURODEGENERATIVE DISEASES” (KØBENHAVNS UNIVERSITET, priority 2021, published 2025):
Square brackets hold non-standard residues; d marks the D form. Side chains are listed from the residue outwards. Ends that are not written are not given here. * marks the point of attachment. memantine = CC12CC3CC(C)(C1)CC(N*)(C3)C2; disulfide linker = not defined here; Pen = CC(C)(S)[C@H](N)C(=O)O

Columns and labels:
[1] = test system: primary rat hippocampal neurons; assay: Neuroprotection in primary hippocampal neurons (NMDA-induced neurotoxicity, LDH activity); assay type: cell-based; settings: NMDA 100 μM, 24 hours, GLP-1 1 μM
Method: Primary rat hippocampal neurons were incubated with either buffer, NMDA (to induce neurotoxicity), NDMA+GLP-1 or NMDA+GLP-1/memantine conjugate for 24 hours. Media was harvested and analysed for Lactate Dehydrogenase (LDH) activity as an indirect measure of cellular cytotoxicity.
Primary cultures of hippocampal neurons were prepared from Sprague-Dawley rat fetuses (E18) and cells were diluted in Neurobasal medium containing B27 supplement (5×10^5 cells/mL) in a Poly-L-Lysin pre-coated 24-well cell culture plate. The neurons were kept at 37° C. in a humidified incubator with 5% C02 atmosphere. After 8 days in vitro, cultures were treated with either vehicle, NMDA (100 μM), NMDA+GLP-1 (1 μM) or NMDA+GLP-1/Memantine for 24 hours. Cell culture medium (50 μL) was dispatched to a 96-well ELISA plate and analyzed for Lactate Dehydrogenase (LDH) activity (CytoTox-96, Nonradioactive Cytotoxicity assay, Promega) according to the manufacturer's protocol.

5×FAD mice = assay: Number of amyloid plaques in frontal cortex and hippocampus of 5×FAD mice (Thioflavine S); assay type: in vivo; settings: once-daily subcutaneous, 49 days, vs saline
Text: Amyloid plaques are commonly found in subjects suffering from Alzheimer's and is caused by abnormal levels of the naturally occurring protein beta-amyloid 42 which clump together to form plaques that collect between neurons and disrupt cell function. Thus, patients suffering from Alzheimer's display elevated levels of amyloid plaques. […] Thus, without being bound by any particular theory, the inventors postulate that the conjugated molecule according to the present invention has a neuroprotective role.
Experiments were conducted using female 5×FAD (Jackson Laboratory, 34840-JAX) mice kept on a chow diet (Altromin #1310, Lage, Germany). The pharmacological studies were initiated at 8-week of age and the mice treated with once-daily subcutaneous injections of GLP-1/memantine or saline (control) for 49 days. Specifically, compounds were administered at a volume of 5 μL per gram, mice group housed (n=2-5 mice per cage) and maintained on a 12-hour light-dark cycle (light 6 am-[…]) at a temperature of 21-23° C. For week 5 and 6, the mice were single-housed and transferred to a digitally ventilated cage system. […] Every 6th slide through hippocampus (bregma: −2.80 mm to −0.94 mm) and frontal cortex (bregma: 0.14 mm to 2.96 mm) were collected and stained with Thioflavine S to quantify amyloid plaque deposition.

[2] = test system: pro-inflammatory markers IL-1b, IL-6 and TNF-α; assay: Gene expression of pro-inflammatory markers in hippocampus of 5×FAD mice (qPCR); assay type: in vivo; settings: once-daily subcutaneous, 49 days
Method: Expression (as measured by mRNA) of pro-inflammatory markers, IL-1b, IL-6 and TNF-α increased across the board in the 5×FAD AD mouse model.
Experiments were conducted using female 5×FAD (Jackson Laboratory, 34840-JAX) mice kept on a chow diet (Altromin #1310, Lage, Germany). The pharmacological studies were initiated at 8-week of age and the mice treated with once-daily subcutaneous injections of GLP-1/memantine or saline (control) for 49 days with weekly measurements of body weight. Specifically, compounds were administered at a volume of 5 μL per gram, mice group-housed (n=2-5 mice per cage) and maintained on a 12-hour light-dark cycle (light 6 am-[…]) at a temperature of 21-23° C. […]
Hippocampal tissue from Example 3 was homogenized in a Trizol reagent (QIAzol Lysis Reagent, Qiagen) using a stainless steel bead (Qiagen) and a TissueLyser LT (Qiagen) for 3 min at 20 Hz. […] After RNA extraction, RNA content was measured using a NanoDrop 2000 (Thermo Fisher) and 500 ng of RNA was converted into cDNA by mixing FS buffer and DTT (Thermo Fisher) with Random Primers (Sigma-Aldrich) and incubated for 3 min at 70° C. followed by addition of dNTPs, RNase out, Superscript III (Thermo Fisher) and placed in a thermal cycler for 5 min at 25° C., 60 min at 50° C., 15 min at 70° C., and kept at −20° C. until further processing. […]

[3] = Body weight progression of 5×FAD Alzheimer's disease mouse model; assay type: in vivo; settings: female 5×FAD mice, 100 nmol/kg/day subcutaneous daily, 49 days
Method: Female wild-type (WT) control mice+vehicle treatment (n=12), 5×FAD AD mice+vehicle treatment and 5×FAD AD mice+GLP-1/memantine (100 nmol/kg/day) treatment were subcutaneously injected daily for 49 days following which brain regions of the mice were dissected and saved for ex vivo analyses.
Experiments were conducted using female 5×FAD (Jackson Laboratory, 34840-JAX) mice kept on a chow diet (Altromin #1310, Lage, Germany). The pharmacological studies were initiated at 8-week of age and the mice treated with once-daily subcutaneous injections of GLP-1/memantine or saline (control) for 49 days with weekly measurements of body weight. Specifically, compounds were administered at a volume of 5 μL per gram, mice group-housed (n=2-5 mice per cage) and maintained on a 12-hour light-dark cycle (light 6 am-[…]) at a temperature of 21-23° C. For week 5 and 6, the mice were single-housed and transferred to a digitally ventilated cage system. For week 7, the mice were re-grouped in groups identical to weeks 0 to 4. Finally, mice were euthanized on day 49, tissues harvested, snap-frozen using liquid nitrogen and stored at −80° C. prior to analyses.

| Substance | NMDA-induced neurotoxicity (Lactate Dehydrogenase activity in media as indirect measure of cytotoxicity) [1] | number of amyloid plaques in frontal cortex and hippocampus (5×FAD mice) | expression (mRNA) of pro-inflammatory markers IL-1b, IL-6 and TNF-α in hippocampus [2] | body weight progression [3] |
| --- | --- | --- | --- | --- |
| GLP-1 Pen40/memantine: GLP-1 peptide of SEQ ID NO:1 with Pen40, conjugated to memantine via disulfide linker (penicillamine linked) (HAEGTFTSDVSSYLEEQAAKEFIAWLVKGGPSSGAPPPS[Pen]([disulfide linker-memantine])-NH2; reading uncertain; listed as Homo sapiens) | prevents the NMDA-induced neurotoxicity | reduced formation of amyloid plaques | completely abolishes the induction of inflammation | elicits only a transient weight loss |
| GLP-1: GLP-1 peptide alone, the unconjugated peptide control in the neuroprotection test [reference compound] | but not GLP-1 peptide alone, prevents the NMDA-induced neurotoxicity | – | – | – |
